For this assay, the target named is Chemokine receptor four (CXCR4) (human (endogenous in JJ)) (UniProt P61073).
UniProt P61073, sequence (P61073 whole entry): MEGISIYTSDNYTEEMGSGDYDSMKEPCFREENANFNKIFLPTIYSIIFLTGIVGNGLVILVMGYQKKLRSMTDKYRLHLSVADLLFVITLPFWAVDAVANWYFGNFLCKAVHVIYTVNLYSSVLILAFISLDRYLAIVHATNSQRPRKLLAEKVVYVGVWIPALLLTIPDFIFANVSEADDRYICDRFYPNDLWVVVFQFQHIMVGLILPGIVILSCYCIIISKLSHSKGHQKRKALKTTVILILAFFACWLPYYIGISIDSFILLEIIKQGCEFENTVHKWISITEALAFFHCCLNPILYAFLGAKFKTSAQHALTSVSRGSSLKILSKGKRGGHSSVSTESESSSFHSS

Turning to “human recombinant SDF-1 (stromal cell derived factor one) (from UniProt P48061 22-93) (ligand)”, the MMP1 mRNA (qRT-PCR, fold) in JJ cells in hypoxia with SDF1 10 ng/ml, against 9 fold by hypoxia alone; the SDF1 mediated increase was blocked by the CXCR4 inhibitor AMD3100 0.1 μM was 23 fold.

Values taken from publication PMC2825244.
